Key:
[1] = molecular target: RhSA (Macaca mulatta, UniProt Q28522); assay: Biacore kinetics of SABAs on immobilized serum albumin: RhSA; type: binding, rhesus; conditions: for Kd: target RhSA
Experimental: (§1) In addition, binding to albumin was carried out under various pH conditions ranging from pH 5.5 to pH 7.4.

[2] = molecular target: MuSA (Mus musculus, UniProt P07724); assay: Biacore kinetics of SABAs on immobilized serum albumin: MuSA; type: binding
[3] = Half-life of HSA and of SABA1-4 with or without HSA in mice (ELISA, WinNonlin); type: in vivo, Ncr nude female mice; conditions: for PK (T½) Mice: co-injected with HSA (3-4 molar excess), tail vein; for half-life in mice plasma: injected without HSA; for increase in half life when co-injected with HSA: with HSA vs without HSA, mice
Experimental: The pharmacokinetic parameters of each Adnectin™ were determined using non-compartmental modeling with WinNonlin software.

[4] = molecular target: HSA (Homo sapiens, UniProt P02768); conditions: for Resistant to pH 7.4→5.5?: binding to HSA from pH 7.4 down to pH 5.5, symbols not defined
Experimental: as §1

[5] = Pharmacokinetics of His-tagged FGF21 and SABA-FGF21 fusions in monkeys; type: in vivo, cynomolgus monkeys; conditions: monkeys
Experimental: Various in vivo studies were conducted in mice and monkeys to characterize the pharmacokinetics of His-tagged FGF21 and SABA1-FGF21v1. An ELISA-based ligand binding assay was used to measure the His-tagged FGF21 and SABA1-FGF21v1 in all mouse and monkey plasma samples.
Following subcutaneous administration, His-tagged FGF21 was well absorbed.
Following subcutaneous administration, SABA1-FGF21v1 was well absorbed.

[6] = Analytical size exclusion chromatography (SEC) of SABAs; type: physicochemical; conditions: midscaled material
Experimental: Size exclusion chromatography (SEC) was performed on the SABAs resulting from the HTPP. SEC of HTPP derived material was performed using a Superdex 200 5/150 or Superdex 75 5/150 column (GE Healthcare) on an Agilent 1100 or 1200 HPLC system with UV detection at A214 nm and A280 nm and with fluorescence detection (excitation=280 nm, emission=350 nm). A buffer of 100 mM sodium sulfate, 100 mM sodium phosphate, 150 mM sodium chloride, pH 6.8 at appropriate flow rate of the SEC column employed. Gel filtration standards (Bio-Rad Laboratories, Hercules, Calif.) were used for molecular weight calibration.
Midscale expression and purification yielded highly pure and active Adnectins™ that were expressed in a soluble form and purified from the soluble fraction of the bacterial cytosol.
Standard size exclusion chromatography (SEC) was performed on the candidate SABAs resulting from the midscale process. SEC of midscaled material was performed using a Superdex 200 10/30 or on a Superdex 75 10/30 column (GE Healthcare) on an Agilent 1100 or 1200 HPLC system with UV detection at A214 nm and A280 nm and with fluorescence detection (excitation=280 nm, emission=350 nm). A buffer of 100 mM sodium sulfate, 100 mM sodium phosphate, 150 mM sodium chloride, pH 6.8 at appropriate flow rate of the SEC column employed. Gel filtration standards (Bio-Rad Laboratories, Hercules, Calif.) were used for molecular weight calibration.

[7] = molecular target: T1, Human serum albumin (Homo sapiens, UniProt P02768); assay: SPR (ProteOn XPR36) binding of SABA-neuropeptide fusions to Human Serum Albumin; conditions: 25° C., average of two experiments
T1 construct: purchased Novozymes Recombumin
Experimental: Surface Plasmon Resonance (SPR) is a direct binding technique by which molecular interactions can be observed in real time. For these experiments, SPR binding studies were performed using a ProteOn XPR36 instrument (BioRad Laboratories). The running buffer, phosphate buffered saline 0.05% Tween 20 pH 7.4, was purchased from Teknova (cat #P1192) and all experiments were run at 25° C. Human serum albumin was directly immobilized on a BioRad GLC chip via amine coupling as per manufacturer's guidelines using amine coupling reagents purchased from BioRad Laboratories. Human serum albumin was purchased from Novozymes (Recombumin™). About 5000 resonance units (RU) of human serum albumin were immobilized onto 4 separate lanes of the GLC chip surface. For each analyte, five concentrations ranging from 15.6 nM to 250 nM were injected over the surface at 30 μl/min for 240 seconds. The dissociation was monitored for 600 seconds. The surface was regenerated with 100 mM HCl. The resultant data were fitted to a Langumuir 1:1 binding model using the ProteOn Manager Software. The experiment was repeated with a different concentration range. In this second experiment, 5 concentrations ranging from 500 nM to 32 nM were injected over the surfaces, and the data analyzed as above. The KD is the disassociation constant. Smaller numbers indicate tighter binding to serum albumin. Molecules covalently attached to SABA that bind to serum albumin display longer in vivo pharmokinetic half-lives, as described earlier with respect to SABA-FGF-21 fusions.

[8] = intravenous, His-tagged FGF21 0.5 mg/kg, SABA1-FGF21v1 0.08 mg/kg

Chain of RhSA (Q28522 17-600): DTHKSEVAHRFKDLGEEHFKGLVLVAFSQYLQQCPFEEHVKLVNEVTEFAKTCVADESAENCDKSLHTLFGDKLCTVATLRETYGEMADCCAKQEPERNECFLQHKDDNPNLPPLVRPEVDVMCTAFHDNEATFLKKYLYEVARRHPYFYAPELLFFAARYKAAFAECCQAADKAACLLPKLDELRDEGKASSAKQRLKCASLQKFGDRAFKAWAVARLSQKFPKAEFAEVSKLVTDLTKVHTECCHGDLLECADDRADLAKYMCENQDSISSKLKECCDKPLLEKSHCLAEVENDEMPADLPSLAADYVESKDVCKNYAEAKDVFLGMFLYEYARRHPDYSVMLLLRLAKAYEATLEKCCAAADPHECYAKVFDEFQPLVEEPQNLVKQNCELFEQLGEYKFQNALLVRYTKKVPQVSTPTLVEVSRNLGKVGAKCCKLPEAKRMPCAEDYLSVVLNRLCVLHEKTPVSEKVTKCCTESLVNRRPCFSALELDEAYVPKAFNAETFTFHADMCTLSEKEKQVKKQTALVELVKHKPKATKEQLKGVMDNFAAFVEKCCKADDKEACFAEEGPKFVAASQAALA
Chain of MuSA (P07724 25-608): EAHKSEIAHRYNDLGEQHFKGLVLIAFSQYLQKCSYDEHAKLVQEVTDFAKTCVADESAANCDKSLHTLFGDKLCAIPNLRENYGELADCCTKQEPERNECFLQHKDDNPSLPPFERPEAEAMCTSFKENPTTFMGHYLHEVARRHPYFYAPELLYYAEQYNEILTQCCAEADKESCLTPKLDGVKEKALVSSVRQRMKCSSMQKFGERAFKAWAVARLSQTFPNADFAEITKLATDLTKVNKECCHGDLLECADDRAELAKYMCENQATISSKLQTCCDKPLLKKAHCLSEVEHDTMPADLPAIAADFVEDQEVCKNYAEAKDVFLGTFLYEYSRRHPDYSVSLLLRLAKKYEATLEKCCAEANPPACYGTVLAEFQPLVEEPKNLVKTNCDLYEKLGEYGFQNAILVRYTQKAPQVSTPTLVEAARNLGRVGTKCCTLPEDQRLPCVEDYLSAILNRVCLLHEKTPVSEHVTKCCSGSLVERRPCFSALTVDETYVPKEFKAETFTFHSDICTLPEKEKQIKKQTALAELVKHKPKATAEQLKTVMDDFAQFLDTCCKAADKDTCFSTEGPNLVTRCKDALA

B1: SABA4.1: HSA binding clone of SABA4 (protein)
chain: MGVSDVPRDLEMVAATPTSLLISWEDDSYYSRYYRITYGETGGNSPVQEFTVPSDLYTATISGLKPGVDYTITVYAVTYDVTDLIMHEPISINYRTEIDKPSQHHHHHH
modifications: His6 tag
Comments: binding affinity for RhSA [1]: Poor binding affinity for RhSA.
cross reaction with RhSA [1]: cross reacted
cross reaction with MuSA [2]: did not cross react
PK (T½) Mice [3]: 4.6 h
half-life in mice plasma [3]: 0.66 h
increase in half life when co-injected with HSA [3]: ~7 fold
Comments: decrease in KD observed at pH <6.0 ([4]; pH <6.0): >2-fold decrease in KD observed at

B2: SABA3: SABA core sequence from PROfusion; in Table 5 stands for SABA3.1 (protein)
chain: EVVAATPTSLLISWSNDGPGLSYYRITYGETGGNSPVQEFTVPSSQTTATISGLKPGVDYTITVYAVSYYTKKAYSAGPISINYRT
Kd [1]: 431 nM
Kd [4]: 863 nM
Resistant to pH 7.4→5.5? [4]: pH resistant binding to HSA down to pH 6.0

B3: FGF21-SABA1v1: fusion in which the SABA moiety is at the C-terminus of FGF21, SEQ ID NO: 171; 300 aa; DNA SEQ ID NO: 180 (protein)
chain: MPIPDSSPLLQFGGQVRQRYLYTDDAQQTEAHLEIREDGTVGGAADQSPESLLQLKALKPGVIQILGVKTSRFLCQRPDGALYGSLHFDPEACSFRELLLEDGYNVYQSEAHGLPLHLPGNKSPHRDPAPRGPARFLPLPGLPPALPEPPGILAPQPPDVGSSDPLSMVGPSQGRSPSYASGGSGSGSGSGSGSGSGVSDVPRDLEVVAATPTSLLISWHSYYEQNSYYRITYGETGGNSPVQEFTVPYSQTTATISGLKPGVDYTITVYAVYGSKYYYPISINYRTEIDKPSQHHHHHH
increase of t1/2 compared to His-tagged FGF21 [5]: ~27 fold
CL (total body plasma clearance, CLTp) [5, 8]: 1.2 mL/h/kg
T½ (terminal half-life) [5, 8]: 50.3 h
Vdss (steady-state volume of distribution, Vss) [5, 8]: 0.06 L/kg

B4: SABA2.1: His-tagged SABA2 sequence (protein)
chain: MGVSDVPRDLEVVAATPTSLLISWPKYDKTGHYYRITYGETGGNSPVQEFTVPTRQTTATISGLKPGVDYTITVYAVSKDDYYPHEHRPISINYRTEIDKPSQHHHHHH
modifications: His6 tag
SEC Dimer (%) [6]: 9%
SEC Monomer (%) [6]: 91%
cross reaction with RhSA [1]: cross reacted
cross reaction with MuSA [2]: did not cross react
PK (T½) Mice [3]: 2.8 h
half-life in mice plasma [3]: 0.24 h
increase in half life when co-injected with HSA [3]: ~12 fold
Comments: binding in dependence of pH [4]: Loss of binding at pH ≦6.5

B5: SABA1-APPv7: SEQ ID NO: 364; SABA1.7-(ED)5G-Cys conjugated to Maleimide-PEG20-PP-CONH2 (conjugate)
chain: MGVSDVPRDLEVVAATPTSLLISWHSYYEQNSYYRITYGETGGNSPVQEFTVPYSQTTATISGLKPGVDYTITVYAVYGSKYYYPISINYRTEIEDEDEDEDEDGC
modifications: Maleimide-PEG20-PP-CONH2 conjugated via Cys
Koff (1/s) [7]: 1.42 10^−4 1/s
Kon (1/Ms) [7]: 7.88 10^3 1/Ms

B6: SABA1-PYYv7: SEQ ID NO: 344; SABA1.7-(ED)5G-Cys conjugated to Maleimide-PEG20-PYY-CONH2 (conjugate)
chain: B5 chain
modifications: Maleimide-PEG20-PYY-CONH2 conjugated via Cys
Koff (1/s) [7]: 2.08 10^−4 1/s
Kon (1/Ms) [7]: 9.29 10^3 1/Ms

B7: SABA4: SABA core with a scaffold mutation; same BC, DE, FG loops as SABA5; in Table 5 stands for SABA4.1 (protein)
chain: EMVAATPTSLLISWEDDSYYSRYYRITYGETGGNSPVQEFTVPSDLYTATISGLKPGVDYTITVYAVTYDVTDLIMHEPISINYRT
Kd [1]: > 1000 nM
PK (T½) Mice [3]: 4.6 h
Kd [4]: 412 nM
Resistant to pH 7.4→5.5? [4]: pH sensitive

B8: SABA2: SABA core sequence from PROfusion; in Table 5 stands for SABA2.1 (protein)
chain: EVVAATPTSLLISWPKYDKTGHYYRITYGETGGNSPVQEFTVPTRQTTATISGLKPGVDYTITVYAVSKDDYYPHEHRPISINYRT
Kd [1]: 63.6 nM
Kd [4]: 33.8 nM
Resistant to pH 7.4→5.5? [4]: pH sensitive

B9: SABA1: serum albumin binding 10Fn3 core sequence, SEQ ID NO: 4; in Table 5 stands for SABA1.1 (protein)
chain: EVVAATPTSLLISWHSYYEQNSYYRITYGETGGNSPVQEFTVPYSQTTATISGLKPGVDYTITVYAVYGSKYYYPISINYRT
Kd [1]: 778 nM
Kd [4]: 47.2 nM

Reference: patent publication US9540424B2, “Serum albumin binding molecules” (BRISTOL-MYERS SQUIBB COMPANY, priority 2010, dated 2017)
